Experimental data as given in PMC10784468 (Nature Communications, 2024).
Where two headings read alike, the source gives them in different places. Positions of bridges follow the written chain, without caps; N, C: chain ends. Residues, ends and D or L forms follow the SMILES beside them. *: point of attachment. X1 = O=C(O)c1ccc(-c2c3nc(c(-c4ccc(C(=O)O)cc4)c4ccc([nH]4)c(-c4ccc(C(=O)*)cc4)c4nc(c(-c5ccc(C(=O)O)cc5)c5ccc2[nH]5)C=C4)C=C3)cc1; X2 = O=C(O)C/C(=C/C(=O)*)C(=O)O

Procedure: The main organs (heart, liver, spleen, lung, kidney and intestine) of healthly BALB/c nude mice (~8 weeks old, 18 g) were collected under euthanasia after treatment with PBS and Gi-F-CAA (8, 12 and 16 mg/kg in 100 μL PBS) for 1 day. Afterwards, the histology evaluation by Hematoxylin and Eosin (H&E) Staining was carried out by Servicebio Technology Co., Ltd. (Wuhan, China). Meanwhile, the whole blood and serum of healthly BALB/c nude mice (~8 weeks old, 18 g) were collected after treatment with PBS and Gi-F-CAA (8, 12 and 16 mg/kg in 100 μL PBS) for 1 days. The blood biochemistry analysis was performed with Hitachi Automatic Biochemical Analyzer 7100. The blood routine analysis was carried out by Vital River Laboratory Animal Technology Co., Ltd. (Beijing, China).
[1] = healthy mice, i.v. 8, 12 and 16 mg/kg, 1 day post-injection

## CC(C)C[C@H](NC(=O)c1ccc(-c2c3nc(c(-c4ccc(C(=O)O)cc4)c4ccc([nH]4)c(-c4ccc(C(=O)O)cc4)c4nc(c(-c5ccc(C(=O)O)cc5)c5ccc2[nH]5)C=C4)C=C3)cc1)C(=O)N[C@@H](CCCCNC(=O)/C=C(/CC(=O)O)C(=O)O)C(=O)N[C@@H](CC(C)C)C(=O)N[C@@H](CCCCN)C(=O)N[C@@H](CC(C)C)C(=O)N[C@@H](CCCCNC(=O)/C=C(/CC(=O)O)C(=O)O)C(=O)NCC(=O)N[C@@H](C)C(=O)N[C@H]1CSSC[C@@H](C(=O)N2CCC[C@H]2C(=O)N[C@H](C(=O)O)C(C)C)NC(=O)[C@@H]2CCCN2C(=O)[C@H](Cc2ccc(O)cc2)NC(=O)[C@H](CC(C)C)NC(=O)[C@@H]2CCCN2C(=O)[C@H](CC(C)C)NC(=O)[C@H](Cc2c[nH]c3ccccc23)NC(=O)[C@H](CC(N)=O)NC1=O [Gi-F-CAA] (X1-LK(X2)LKLK(X2)GACNWLPLYPCPV-OH; disulfide 9-17; C-terminus assumed)
12 mg/kg, mice 3
  ALP: 153 U/L
  ALT: 60 U/L
  AST: 190 U/L
  BUN: 12.9 mmol/L
  CREA: 30.6 µmol/L
  HGB: 15.6 g/dL
  NEUT: 0.3 109/L
  PLT: 1144 109/L
  RBC: 10 1012/L
  WBC: 1.9 109/L
12 mg/kg, mice 4
  ALP: 146 U/L
  ALT: 60 U/L
  AST: 190 U/L
  BUN: 13.29 mmol/L
  CREA: 29.9 µmol/L
  HGB: 16.4 g/dL
  NEUT: 0.3 109/L
  PLT: 1087 109/L
  RBC: 10.1 1012/L
  WBC: 2.1 109/L
16 mg/kg, mice 1
  ALP: 150 U/L
  ALT: 57 U/L
  AST: 182 U/L
  BUN: 14.18 mmol/L
  CREA: 31.7 µmol/L
  HGB: 15.7 g/dL
  NEUT: 0.4 109/L
  PLT: 1194 109/L
  RBC: 9.6 1012/L
  WBC: 2 109/L
16 mg/kg, mice 2
  ALP: 145 U/L
  ALT: 56 U/L
  AST: 188 U/L
  BUN: 13.21 mmol/L
  CREA: 29.4 µmol/L
  HGB: 15.3 g/dL
  NEUT: 0.3 109/L
  PLT: 984 109/L
  RBC: 10.5 1012/L
  WBC: 1.5 109/L
16 mg/kg, mice 3
  ALP: 148 U/L
  ALT: 64 U/L
  AST: 180 U/L
  BUN: 12.87 mmol/L
  CREA: 28.9 µmol/L
  HGB: 15.1 g/dL
  NEUT: 0.3 109/L
  PLT: 1087 109/L
  RBC: 10.6 1012/L
  WBC: 1.9 109/L
16 mg/kg, mice 4
  ALP: 146 U/L
  ALT: 59 U/L
  AST: 193 U/L
  BUN: 12.98 mmol/L
  CREA: 32.5 µmol/L
  HGB: 15 g/dL
  NEUT: 0.4 109/L
  PLT: 1072 109/L
  RBC: 9.8 1012/L
  WBC: 1.9 109/L
Healthy mice, i.v. 8, 12 and 16 mg/kg, 1 day
  blood routine examination (WBC, RBC, PLT, LYMPH, NEUT): comparable with that of PBS group
[1]
  hepatic and renal function markers (ALT, AST, ALP, BUN, CRE): normal ranges of values
  histopathology (H&E) of major organs: no remarkable histopathological damages
